Source: patent US20090062197A1 (FULCRUM SP, published 2009)

B1: SP1 variant Δ2-6 E72C (other)
chain: MKLVKHTLLTRFKDEITREQIDNYINDYTNLLDLIPSMKSFNWGTDLGMESAELNRGYTHAFESTFCSKSGLQEYLDSAALAAFAEGFLPTLSQRLVIDYFLY
B2: CRGD SP1 (tumor recognition peptide CRGD inserted into the SP1 N-terminus) (other)
chain: MCRGDATRTPKLVKHTLLTRFKDEITREQIDNYINDYTNLLDLIPSMKSFNWGTDLGMESAELNRGYTHAFESTFESKSGLQEYLDSAALAAFAEGFLPTLSQRLVIDYFLY
notes: also called CRGD2
B3: RGDC SP1 (tumor recognition peptide RGDC inserted into the SP1 N-terminus) (other)
chain: MRGDCATRTPKLVKHTLLTRFKDEITREQIDNYINDYTNLLDLIPSMKSFNWGTDLGMESAELNRGYTHAFESTFESKSGLQEYLDSAALAAFAEGFLPTLSQRLVIDYFLY
notes: also called RGDC2
B4: SP1 variant F106A 6XH2 (other)
chain: MHHHHHHATRTPKLVKHTLLTRFKDEITREQIDNYINDYTNLLDLIPSMKSFNWGTDLGMESAELNRGYTHAFESTFESKSGLQEYLDSAALAAFAEGFLPTLSQRLVIDYALY
B5: SP1 variant N31A T34A 6XH2 (other)
chain: MHHHHHHATRTPKLVKHTLLTRFKDEITREQIDNYIADYANLLDLIPSMKSFNWGTDLGMESAELNRGYTHAFESTFESKSGLQEYLDSAALAAFAEGFLPTLSQRLVIDYFLY
B6: SP1 variant S73A S75A 6XH2 (other)
chain: MHHHHHHATRTPKLVKHTLLTRFKDEITREQIDNYINDYTNLLDLIPSMKSFNWGTDLGMESAELNRGYTHAFESTFEAKAGLQEYLDSAALAAFAEGFLPTLSQRLVIDYFLY
B7: 6HSP1 (six histidine N-terminal tagged SP1) (other)
chain: MHHHHHHATRTPKLVKHTLLTRFKDEITREQIDNYINDYTNLLDLIPSMKSFNWGTDLGMESAELNRGYTHAFESTFESKSGLQEYLDSAALAAFAEGFLPTLSQRLVIDYFLY
notes: also called 6H2; SP1 6H
B8: SP1 variant D38A S75A 6XH2 (other)
chain: MHHHHHHATRTPKLVKHTLLTRFKDEITREQIDNYINDYTNLLALIPSMKSFNWGTDLGMESAELNRGYTHAFESTFESKAGLQEYLDSAALAAFAEGFLPTLSQRLVIDYFLY
B9: SP1 variant HH2 (other)
chain: MHHATRTPKLVKHTLLTRFKDEITREQIDNYINDYTNLLDLIPSMKSFNWGTDLGMESAELNRGYTHAFESTFESKSGLQEYLDSAALAAFAEGFLPTLSQRLVIDYFLY
B10: SP1 (wild type, stress related SP1 protein from aspen) (other)
chain: MATRTPKLVKHTLLTRFKDEITREQIDNYINDYTNLLDLIPSMKSFNWGTDLGMESAELNRGYTHAFESTFESKSGLQEYLDSAALAAFAEGFLPTLSQRLVIDYFLY
notes: Full length SP1 without any additional tag, expressed in E. coli; it self-assembles into a dodecamer; also called WT; wild type SP1
B11: SP1 variant R23A (other)
chain: MATRTPKLVKHTLLTRFKDEITAEQIDNYINDYTNLLDLIPSMKSFNWGTDLGMESAELNRGYTHAFESTFESKSGLQEYLDSAALAAFAEGFLPTLSQRLVIDYFLY
B12: SP1 variant E68A (other)
chain: MATRTPKLVKHTLLTRFKDEITREQIDNYINDYTNLLDLIPSMKSFNWGTDLGMESAELNRGYTHAFASTFESKSGLQEYLDSAALAAFAEGFLPTLSQRLVIDYFLY
B13: SP1 variant D38A (other)
chain: MATRTPKLVKHTLLTRFKDEITREQIDNYINDYTNLLALIPSMKSFNWGTDLGMESAELNRGYTHAFESTFESKSGLQEYLDSAALAAFAEGFLPTLSQRLVIDYFLY
B14: SP1 variant D27A (other)
chain: MATRTPKLVKHTLLTRFKDEITREQIANYINDYTNLLDLIPSMKSFNWGTDLGMESAELNRGYTHAFESTFESKSGLQEYLDSAALAAFAEGFLPTLSQRLVIDYFLY
B15: SP1 variant T34A (other)
chain: MATRTPKLVKHTLLTRFKDEITREQIDNYINDYANLLDLIPSMKSFNWGTDLGMESAELNRGYTHAFESTFESKSGLQEYLDSAALAAFAEGFLPTLSQRLVIDYFLY
B16: SP1 variant Y108A (other)
chain: MATRTPKLVKHTLLTRFKDEITREQIDNYINDYTNLLDLIPSMKSFNWGTDLGMESAELNRGYTHAFESTFESKSGLQEYLDSAALAAFAEGFLPTLSQRLVIDYFLA
B17: SP1 variant I30A (other)
chain: MATRTPKLVKHTLLTRFKDEITREQIDNYANDYTNLLDLIPSMKSFNWGTDLGMESAELNRGYTHAFESTFESKSGLQEYLDSAALAAFAEGFLPTLSQRLVIDYFLY
B18: SP1 variant N31A (other)
chain: MATRTPKLVKHTLLTRFKDEITREQIDNYIADYTNLLDLIPSMKSFNWGTDLGMESAELNRGYTHAFESTFESKSGLQEYLDSAALAAFAEGFLPTLSQRLVIDYFLY
B19: SP1 variant Δ2-6 I40C (other)
chain: MKLVKHTLLTRFKDEITREQIDNYINDYTNLLDLCPSMKSFNWGTDLGMESAELNRGYTHAFESTFESKSGLQEYLDSAALAAFAEGFLPTLSQRLVIDYFLY
B20: SP1 variant Δ2-7 Cys2 (other)
chain: MCLVKHTLLTRFKDEITREQIDNYINDYTNLLDLIPSMKSFNWGTDLGMESAELNRGYTHAFESTFESKSGLQEYLDSAALAAFAEGFLPTLSQRLVIDYFLY
B21: ΔNSP1 (N-terminal deleted SP1, deletion of amino acids 2-6) (other)
chain: MKLVKHTLLTRFKDEITREQIDNYINDYTNLLDLIPSMKSFNWGTDLGMESAELNRGYTHAFESTFESKSGLQEYLDSAALAAFAEGFLPTLSQRLVIDYFLY
notes: Recombinant variant, E. coli; also called Δ2-6; SP1 ΔN
B22: SP1 variant Δ2-6 His2 (other)
chain: MHKLVKHTLLTRFKDEITREQIDNYINDYTNLLDLIPSMKSFNWGTDLGMESAELNRGYTHAFESTFESKSGLQEYLDSAALAAFAEGFLPTLSQRLVIDYFLY
B23: SP1 variant Cys2loop1RGd (Cys2 K18R Gly19) (other)
chain: MCATRTPKLVKHTLLTRFRGDEITREQIDNYINDYTNLLDLIPSMKSFNWGTDLGMESAELNRGYTHAFESTFESKSGLQEYLDSAALAAFAEGFLPTLSQRLVIDYFLY
B24: SP1 variant Δ2-6 L81C (other)
chain: MKLVKHTLLTRFKDEITREQIDNYINDYTNLLDLIPSMKSFNWGTDLGMESAELNRGYTHAFESTFESKSGLQEYCDSAALAAFAEGFLPTLSQRLVIDYFLY

Target: the molecule itself
Assay: homo-oligomer complex formation after inclusion body refolding (footnote 10), SDS-PAGE, proteinase digestion of monomers

Binding result, binds:
B1

Target: the molecule itself
Assay: homo-oligomer complex formation, SDS-PAGE of unboiled samples

Binding result, binds:
B2
B3
B4
B5
B6
B7
B8
B9
B10
B11
B12
B13
B14
B15
B16
B17
B18
B19
B20
B21
B22

Target: the molecule itself
Assay: homo-oligomer complex formation after inclusion body refolding, SDS-PAGE, proteinase digestion of monomers

Binding result, binds:
B23
B24

Target: B21
Assay: co-electro-elution of monomers, Ni-NTA pull-down, Proteinase K, SDS-PAGE

Binding result, binds:
B7
